Measured values from paper PMC7465668.

Biological target: S-enantioselective imine reductase from Mycobacterium smegmatis (S-IRED-Ms) (Mycobacterium smegmatis)
Test: crystal structure; holo-S-IRED-Ms co-crystallised with 5 mM NADPH; 10 mg/mL protein, 20% (w/v) PEG 3350, 0.2 M sodium formate, sitting drop, 4 °C; 1.55 Å, five monomers in the asymmetric unit

## S-enantioselective imine reductase from Mycobacterium smegmatis (S-IRED-Ms) (enzyme)
  stoichiometry N: 2
